Legend:
[1] = Curcumin binding fluorescence; settings: in the presence of Zn^2+
Source text: FIG. 40. Fluorescence of C and Q or with incorporated trifluoroleucine/TFL (C TFL and Q TFL) in the presence of no metal, Ni (II), or Zn (II) and curcumin. An increase in fluorescence indicates structural stability of the protein as it is able to bind with curcumin, the fluorescent probe in this case.

[2] = ATR-FTIR secondary structure of solid-state protein; format: physicochemical; settings: for Random, percent composition / α helix, percent composition / β sheet, percent composition: 10 μM protein in 50 mM PB
Description: Attenuated Total Reflectance Fourier Transform Infrared Spectroscopy (ATR-FTIR): ATR-FTIR experiments were performed using Perkin Elmer System 2000 FT-IR with DuraSamplIR II T diamond ATR accessory and equipped with a MCT-A detector. Approximately, 5 μL of peptide solution (10 μM in 50 mM PB, pH 4, 8, and 10) was added on the diamond ATR surface. The spectrum (128 scans) was measured at room temperature over a range of 4000-400 cm^−1 with 0.5 cm^−1 resolution. PeakFit software was used to process the data, which involved a 2nd derivative zero baseline correction of the amide I region between 1700-1600 cm^−1 and deconvolution of peaks with a Gaussian function. All readings represent the average of two trials.
To quantifying the secondary structure of the protein in its solid-state, ATR-FTIR experiments were conducted to evaluate secondary structure of insoluble Q fibers at pH 4, 8, and 10 (Table 8). The frequency measured in the regions of the amide I and amide II absorptions of a protein correlate to the secondary structural motifs within the protein, and were thereby used to assess conformation of the protein in its solid-state (FIGS. 20a-20d). Secondary structure conformation based on ATR-FTIR data for Q in 50 mM PB at pH 4, 8, and 10, and in the presence of curcumin at a 5:1 molar ratio with Q at pH 4 are shown in […]. Percent composition was determined from relative areas of peaks fit to spectra (FIGS. 20a-20d).
Secondary structure conformation based on ATR-FTIR data for 10 μM protein in 50 mM PB before and after templation of AuNPs is provided in Table 10. Percent composition was determined from relative areas of peaks fit to spectra (see spectra FIGS. 37a-37d, FIGS. 38a-38d).

Zeta potential = format: physicochemical; settings: 10 μM protein, pH 4
Description: Zeta potential: Zeta potential measurements were performed on a Zetasizer Nano Series model Nano Z590. 50 mM phosphate buffer at pH 4 was used to saturate the clear polycarbonate disposable zeta cell DTS1060C prior to injecting 750 μL protein samples at protein concentrations of 10 μM. The following settings were used for zeta potential measurements in the DTS (Nano) software: […] instrument settings, Smoluvchoski model, material protein, dispersant PBS, temperature of 25° C., viscosity 1.0200 cP, and dielectric constant of […]. Measurements were taken in triplicates, conducting 10 runs for each measurement, with a delay time of 2 seconds between each measurement.

[3] = curcumin at 5:1 molar ratio, pH 4

Substance: Q: Q54 protein, SEQ ID NO:2, variant of COMPcc; coiled-coil that self-assembles into homopentamers and nanofibers (MRGSHHHHHHGSIEGRVKEITFLKNTAPQMLRELQETNAALQDVRELLRQQSKL)
- binding to small molecule (curcumin fluorescence) [1]: substantially increase the binding to small molecule
- Random, percent composition ([2]; +AuNP (after templation)): 27%
- α helix, percent composition ([2]; +AuNP (after templation)): 30%
- β sheet, percent composition ([2]; +AuNP (after templation)): 43%
- Random, percent composition ([2]; before templation of AuNPs): 0%
- α helix, percent composition ([2]; before templation of AuNPs): 65%
- β sheet, percent composition ([2]; before templation of AuNPs): 35%
- α helix % composition [2, 3]: 79%
- β sheet % composition [2, 3]: 10%
- Random coil % composition ([2]; curcumin at 5:1 molar ratio, pH 4, 1640-1648 cm^−1): 12%
- β sheet % composition ([2]; pH 4, 50 mM PB, 1625-1640, 1675-1695 cm^−1): 38%
- α helix % composition ([2]; pH 4, 50 mM PB, 1648-1660 cm^−1): 62%
- α helix % composition ([2]; pH 8, 50 mM PB): 63%
- β sheet % composition ([2]; pH 8, 50 mM PB): 37%
- α helix % composition ([2]; pH 10, 50 mM PB): 68%
- β sheet % composition ([2]; pH 10, 50 mM PB): 32%
- zeta potential (Zeta potential; absence of curcumin): 19.1±2.5 mV
- zeta potential, maximum value (Zeta potential; curcumin concentration of 40 μM): 25.2±0.8 mV

From US9777041B2, “Protein nanofibers from self-assembling pentamers” (New York University, priority 2013, dated 2017)
